Data: patent US20140363428A1 (Chugai, published 2014)
Substitutions are numbered along the chain they refer to.

B1: IgG1-F1129 (antibody)
heavy: QVQLQESGPGLVKPSETLSLTCAVSGHSISHDHAWSWVRQPPGEGLEWIGFISYSGITNYNPSLQGRVTISRDNSKNTLYLQMNSLRAEDTAVYYCARSLARTTAMDYWGEGTLVTVSSASTKGPSVFPLAPSSKSTSGGTAALGCLVKDYFPEPVTVSWNSGALTSGVHTFPAVLQSSGLYSLSSVVTVPSSSLGTQTYICNVNHKPSNTKVDKKVEPKSCDKTHTCPPCPAPELLGGPSVFLFPPKPKDTLYISRTPEVTCVVVDVSHEDPEVKFNWYVDGVEVHNAKTKPREEQYNSTYRVVSVLQVLHHDWLNGKEYKCKVSNKALPAPIEKTISKAKGQPREPQVYTLPPSRDELTKNQVSLTCLVKGFYPSDIAVEWESNGQPENNYKTTPPVLDSDGSFFLYSKLTVDKSRWQQGNVFSCSVMHEALHYHVTQKSLSLSP
light: not shown
notes: VH3-IgG1 with Fc substitutions (EU numbering) + L(WT)-CK
B2: IgG1-F1145 (antibody)
heavy: B1 heavy with T252V, H313A, Q440R, S442E
light: not shown
notes: as for B1
B3: IgG1-F1134 (antibody)
heavy: B1 heavy with L237R, S241K, Q309T, H313Q, Q440R
light: not shown
notes: as for B1
B4: IgG1-F1152 (antibody)
heavy: B1 heavy with L237R, S241K, H313A, S426N, V438Y
light: not shown
notes: as for B1
B5: IgG1-F1131 (antibody)
heavy: B1 heavy with L237R, S241K, Q309T, H313Q, V424E
light: not shown
notes: as for B1
B6: IgG1-F1140 (antibody)
heavy: B1 heavy with Q309T, H313Q, V424E, S426R, Q440R, S442E
light: not shown
notes: as for B1
B7: IgG1-F1146 (antibody)
heavy: B1 heavy with L237R, S241K, T252V, H313A, Q440R, S442E
light: not shown
notes: as for B1
B8: IgG1-F1141 (antibody)
heavy: B1 heavy with Q309T, H313Q, V424S, S426R, Q440R, S442E
light: not shown
notes: as for B1
B9: IgG1-F1137 (antibody)
heavy: B1 heavy with L237R, S241K, Q309T, H313Q, V424S, S426R
light: not shown
notes: as for B1
B10: IgG1-F1151 (antibody)
heavy: B1 heavy with L237R, S241K, Q309T, H313Q, S426N, V438Y
light: not shown
notes: as for B1
B11: IgG1-F1139 (antibody)
heavy: B1 heavy with L237R, S241K, Q309T, H313Q, S426N
light: not shown
notes: as for B1
B12: IgG1-F1142 (antibody)
heavy: B1 heavy with L237R, S241K, Q309T, H313Q, V424E, S426R, Q440R, S442E
light: not shown
notes: as for B1
B13: IgG1-F1135 (antibody)
heavy: B1 heavy with L237R, S241K, Q309T, H313Q, S442E
light: not shown
notes: as for B1
B14: IgG1-F1148 (antibody)
heavy: B1 heavy with L237R, S241K, H313A, V438Y, Q440R, S442E
light: not shown
notes: as for B1
B15: IgG1-F1130 (antibody)
heavy: B1 heavy with Q309A, H313A
light: not shown
notes: as for B1
B16: IgG1-F1133 (antibody)
heavy: B1 heavy with L237R, S241K, Q309T, H313Q, S426R
light: not shown
notes: as for B1
B17: IgG1-F1143 (antibody)
heavy: B1 heavy with L237R, S241K, Q309T, H313Q, V424S, S426R, Q440R, S442E
light: not shown
notes: as for B1
B18: IgG1-F1144 (antibody)
heavy: B1 heavy with L237R, S241K, T252V, V310P, H313A, Q440R, S442E
light: not shown
notes: as for B1
B19: IgG1-F1138 (antibody)
heavy: B1 heavy with L237R, S241K, Q309T, H313Q, Q440R, S442E
light: not shown
notes: as for B1
B20: IgG1-F1136 (antibody)
heavy: B1 heavy with L237R, S241K, Q309T, H313Q, V424E, S426R
light: not shown
notes: as for B1
B21: IgG1-F1153 (antibody)
heavy: B1 heavy with L237R, S241K, T252V, H313A, S426N
light: not shown
notes: as for B1
B22: IgG1-F1147 (antibody)
heavy: B1 heavy with H313A, V438Y, Q440R, S442E
light: not shown
notes: as for B1

Molecular target: T1, soluble human FcRn (heterodimer of FcRn alpha chain and beta2-microglobulin) (human, UniProt P55899 24-297; P61769 21-119)
T1 construct: Expressed in HEK293H and purified on IgG Sepharose; also called hFcRn
Test: SPR Biacore T100, antibody captured via protein L, hFcRn analyte, pH 7.0, 25 C;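 also: KD derived from kinetic ka and kd fits of sensorgrams, CM4 sensor chip, sodium phosphate NaCl Tween20 running buffer, buffer-only injection used as reference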
Protocol: An appropriate amount of protein L (ACTIGEN) was immobilized onto Sensor chip CM4 (GE Healthcare) by the amino coupling method, and the chip was allowed to capture an antibody of interest. Then, diluted FcRn solutions and running buffer (as a reference solution) were injected to allow human FcRn to interact with the antibody captured on the sensor chip. The running buffer used comprised 50 mmol/l sodium phosphate, 150 mmol/l NaCl, and 0.05% (w/v) Tween20 (pH 7.0). FcRn was diluted using each buffer. The chip was regenerated using 10 mmol/l glycine-HCl (pH 1.5). Assays were carried out exclusively at 25 degrees C. The association rate constant ka (1/Ms) and dissociation rate constant kd (1/s), both of which are kinetic parameters, were calculated based on the sensorgrams obtained in the assays, and KD (M) of each antibody for human FcRn was determined from these values. Each parameter was calculated using Biacore T100 Evaluation Software (GE Healthcare).

Kd	Binder
45 nM	B1
52 nM	B2
170 nM	B3
74 nM	B4
130 nM	B5
160 nM	B6
62 nM	B7
180 nM	B8
160 nM	B9
250 nM	B10
150 nM	B11
190 nM	B12
130 nM	B13
76 nM	B14
55 nM	B15
160 nM	B16
200 nM	B17
14 nM	B18
170 nM	B19
160 nM	B20
48 nM	B21
72 nM	B22
